Measurements published in PMC7396694, “Two MarR-Type Repressors Balance Precursor Uptake and Glycine Betaine Synthesis in Bacillus subtilis to Provide Cytoprotection Against Sustained Osmotic Stress” (Frontiers in Microbiology, 2020).

T1: GbsR-Strep-tag II (Bacillus subtilis JH642) (UniProt P71015)
T1 sequence: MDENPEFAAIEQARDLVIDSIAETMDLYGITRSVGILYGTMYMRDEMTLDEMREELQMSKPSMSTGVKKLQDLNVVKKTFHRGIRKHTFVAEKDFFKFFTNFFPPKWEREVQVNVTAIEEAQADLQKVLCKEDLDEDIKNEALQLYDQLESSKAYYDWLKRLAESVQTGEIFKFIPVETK

B1: GbsR-Strep-tag II recombinant protein (natural protein, Bacillus subtilis, UniProt P71015 1-180, looked up)
chain: T1 sequence
notes: GbsR, choline-responsive MarR-type repressor of Bacillus subtilis; coding region of gbsR amplified from chromosomal DNA of B. subtilis JH642; also called GbsR repressor; not shown: Strep-tag II, C-terminal, kept

Tests used:
[1] = molecular target: T1, GbsR-Strep-tag II (Bacillus subtilis JH642); test: EMSA; conditions: 10 mM Tris pH 8, 150 ug/ml herring sperm DNA, 7.5% glycerol, 1 pmol DNA in 20 ul, 20 min at 25 C; native 8% polyacrylamide gel
[2] = molecular target: the molecule itself; test: SEC; HiLoad 16/600 Superdex 200 pg; 2 ml protein solution (1 mg/ml) loaded immediately after affinity purification; 100 mM potassium phosphate (pH 8), 300 mM NaCl; column standardised with thyroglobulin, albumin, ovalbumin, cytochrome C

Row | Molecule | binding [1] | stoichiometry N [2]
1 | GGGACTTTGACAGTTTAAAAACCATATGTTAGATTAAGGTTGTTAAAAACATTAAATTTTTATTTAACAAACTTTATTTACGTCAAGGAGGCTTAT (double strand) [gbsA fragment with GbsR operator] | binds | 
2 | B1 |  | 2
